Assay results from publication PMC5435981.

Biological target: APOBEC3A E72A (A3A-E72A) (Homo sapiens, UniProt P31941 1-199, E72A)
Assay: ITC

Sequence of APOBEC3A E72A (A3A-E72A) (P31941 whole entry E72A): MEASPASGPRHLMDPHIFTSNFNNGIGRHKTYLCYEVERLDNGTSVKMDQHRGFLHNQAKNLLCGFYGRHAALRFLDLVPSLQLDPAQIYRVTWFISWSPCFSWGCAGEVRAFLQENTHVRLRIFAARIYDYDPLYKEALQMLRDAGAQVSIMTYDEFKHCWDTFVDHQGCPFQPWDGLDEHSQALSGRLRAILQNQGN

With AATTCAAAA (ssDNA) [A2TTCA4] the Kd was 17 ± 6 µM.
